The values that follow come from article PMC5574551.

One may read the Kd as the equilibrium constant for the complex coming apart. Usually stoichiometry N stands for a count of units in the complex or per binding partner.

Test [1] concerns the target taxol-stabilized microtubules (porcine brain tubulin) (porcine) (UniProt P02550). Put plainly: single molecule observation (TIRF microscopy); as a2, 1 nM Alexa 647-labeled dynein with 2 nM p135 isoform.
Test [2] has the same target. Put plainly: single molecule observation (TIRF microscopy); as a2, 1 nM Alexa 647-labeled dynein with 20 nM BICD2 (full length), no dynactin.
The target is the same in test [3]. The test is described as follows: single molecule observation (TIRF microscopy); as a2, 1 nM Alexa 647-labeled dynein with 2 nM 1BΔCC1 mutant.
Test [4] deals with dynactin complex containing the DCTN1B (1B) isoform (human (cDNA from HEK293 cells) | human (endogenous in HEK293)) (UniProt Q13561). The test is described as follows: pull-down; TALON Dynabeads pull-down of purified proteins; dynein and dynactin mixed in 10 mM Pipes-NaOH pH 7.0, 75 mM NaCl, 45 mM imidazole, 0.01% Tween 20, 10 min at 25°C; bound and unbound fractions on SDS-PAGE, dynein heavy chain band quantified by densitometry.

Test [5] addresses taxol-stabilized microtubules (porcine brain tubulin) (porcine) (UniProt P02550). The test is described as follows: single molecule observation (TIRF microscopy); as a2, 1 nM Alexa 647-labeled dynein with 2 nM 1A isoform, no BICD2.
The target is the same in test [6]. The test is described as follows: single molecule observation (TIRF microscopy); 1 nM Alexa 647-labeled dynein alone on taxol-stabilized microtubules held on glass by anti-β tubulin antibody; SM buffer (12 mM Pipes-KOH pH 6.8, 25 mM KAce, 1 mM ATP, 2 mM DTT), 25°C; total residence time in a window of 10 s and 10 μm of microtubule.
The target is the same in test [7]. The test is described as follows: single molecule observation (TIRF microscopy); as a2, 1 nM Alexa 647-labeled dynein with 2 nM 1B isoform and 20 nM BICD2 (DDB 1B).
Test [8] has the same target. The test is described as follows: single molecule observation (TIRF microscopy); as a2, 1 nM Alexa 647-labeled dynein with 2 nM 1B isoform, no BICD2.
The target is the same in test [9]. Put plainly: single molecule observation (TIRF microscopy); as a2, 1 nM Alexa 647-labeled dynein with 2 nM 1A isoform and 20 nM BICD2 (DDB 1A).
Test [10] has the same target. The test is described as follows: single molecule observation (TIRF microscopy); 1 nM GFP-labeled dynactin isoform, mutant or fragment alone on taxol-stabilized microtubules held on glass; SM buffer, 1 mM ATP, 25°C; total residence time in a window of 10 s and 10 μm of microtubule.

For the substance “cytoplasmic dynein (recombinant dynein complex), Q14204 1-4646”, in [1], the total residence time on microtubules (with p135 isoform) came to 23.8 s. The same substance registered a total residence time on microtubules (with BICD2) in [2] of 51.8 s. This substance had a total residence time on microtubules (with 1BΔCC1 mutant) in test [3] of 54 s. For the same substance, in test [4], the Kd turned out to be 2.3 nM and the stoichiometry N is 1. In test [5], the fraction not dissociated from microtubules during the observation of 30 s (with 1A isoform) was 79% and the total residence time on microtubules (with 1A isoform) came to 53.2 s. Besides, the total residence time on microtubules in test [6] is 64.9 s. For the same substance, the total residence time on microtubules (with 1B isoform and BICD2) in test [7] came out at 19.2 s. Moreover, in [8], the duration on microtubules, τ (with 1B isoform) worked out at 1.2 s and the total residence time on microtubules (with 1B isoform) was determined as 4.7 s. For the same substance, the total residence time on microtubules (with 1A isoform and BICD2) in [9] came out at 49.1 s.

On to “dynactin complex containing the 1BΔCC1 mutant of DCTN1 (from UniProt P61163 1-376)”, for which the total residence time on microtubules in test [10] turned out to be 50 s.

“dynactin complex containing the DCTN1A (1A) isoform (from UniProt Q14203-1 1-1278; Q13561 1-401; P61163 1-376)”: in test [10], the fraction not dissociated from microtubules during the observation of 30 s was found to be 72% and the total residence time on microtubules worked out at 60.1 s.
